Source: the Human Domainome abundance scans (Beltran et al. 2025)

B1: Ankyrin repeat and SAM domain-containing protein 6, residues 774 to 836; numbered along this chain, Q68DC2 (parent)
chain: DEDELTGILKKLSLEKYQPIFEEQEVDMEAFLTLTDGDLKELGIKTDGSRQQILAAISELNAG

Variants of: B1
Assay: abundance fitness (aPCA) (normalised: wild type 0, dead -1); higher = more abundant; growth selection in yeast, the domain comes from the species named
Conditions: Homo sapiens

Abundance fitness: each site, then its substitutions
F31: W -0.432, Y -0.563
L32: A -0.097, D -0.408, E -0.271, G -0.251, I -0.181, K 0.264, M -0.083, N -0.295, P -0.199, R 0.039, T -0.157, V -0.103, W -0.536, Y -0.334
T33: A -0.037, D -0.122, E -0.032, F -0.642, G -0.057, H -0.012, I -0.507, K 0.141, M -0.048, N -0.053, P -0.712, Q -0.071, R 0.048, S -0.023, V -0.215, W -0.49, Y -0.496
L34: A -0.403, C -0.459, D -0.654, E -0.526, F -0.298, G -0.551, H -0.356, I -0.627, K -0.309, M 0.038, N -0.483, P -0.561, R -0.523, S -0.457, T -0.556, V -0.345, W -0.657, Y -0.095
T35: A -0.377, C -0.363, D 0.037, E -0.067, F -0.779, G -0.199, H -0.302, I -0.695, L -0.932, M -0.65, N -0.078, Q -0.026, R -0.057, S 0.037, V -0.687, W -0.879
D36: C -0.487, E -0.051, F -1.02, G -0.405, H -0.584, I -0.642, K -0.449, L -0.702, M -0.441, N -0.252, Q -0.565, R -0.72, S -0.392, T -0.532, V -0.571
G37: A 0.004, C -0.269, D 0.117, E -0.001, F -0.051, H -0.087, K 0.033, L -0.049, N -0.095, P -0.035, R -0.111, S -0.058, T -0.064, V -0.028, W -0.331, Y -0.138
D38: A -0.49, C -0.773, E -0.072, F -1.28, G -0.273, H -0.418, I -1.12, K -0.188, L -1.16, M -0.611, N -0.2, P -0.645, Q -0.165, R -0.074, S -0.232, T -0.369, V -1.06, W -0.965, Y -1.11
L39: A -0.59, C -0.662, D -0.499, E -0.625, F -0.616, G -0.699, H -0.751, K -0.912, M -0.437, N -0.514, P -0.747, Q -0.605, R -0.599, S -0.683, T -0.667, V -0.57, W -1, Y -0.673
K40: A -0.121, C -0.215, D -0.084, E -0.041, F -0.326, G -0.31, H -0.286, L -0.036, N -0.146, P -0.67, Q -0.142, S -0.096, T -0.138, V 0.044, W -0.263, Y -0.115
E41: A -0.047, C -0.113, D -0.044, F -0.376, G -0.092, H -0.045, I -0.472, K -0.109, L -0.205, M -0.263, N -0.052, P -0.658, Q 0.044, R -0.049, S -0.022, T -0.039, V -0.232, W -0.498, Y -0.321
G43: C -0.742, D -0.199, H -0.556, I -1.07, K -0.326, L -0.655, M -0.611, P -0.683, Q -0.608, R -0.616, S -0.477, T -0.675, W -1.16, Y -1.22
I44: A -0.574, C -0.458, E -0.586, F -0.144, G -0.592, H -0.806, L -0.245, M -0.253, N -0.645, P -0.746, Q -0.643, R -0.676, S -0.651, T -0.555, V 0.037, W -0.654, Y -0.766
K45: A -0.055, C -0.191, D 0.079, E 0.013, F -0.143, G -0.114, H -0.076, I -0.348, L -0.066, M 0.008, N -0.079, P -0.044, Q -0.151, R -0.027, T -0.02, V -0.225, Y -0.233
T46: C 0.016, D 0.118, E 0.084, F -0.361, G -0.011, H 0.151, I -0.019, K 0.061, L -0.116, M -0.039, N -0.159, P -0.048, Q -0.201, S 0.017, V -0.138, W -0.521, Y -0.197
D47: A -0.061, C -0.128, E 0.056, F -0.14, G -0.158, H 0.042, I -0.058, K -0.126, L -0.089, M -0.138, N -0.126, Q -0.054, R -0.149, S -0.114, T -0.029, V -0.049, W -0.309, Y -0.114
G48: A -0.047, D -0.016, E 0.107, F -0.339, K -0.131, L -0.042, M -0.113, Q -0.039, S 0.007, T 0.149, W -0.424, Y -0.321
S49: C 0.096, D 0.157, E 0.181, F -0.249, G -0.055, H 0.009, K -0.186, L -0.191, M -0.068, N 0.003, P -0.208, Q -0.03, R -0.192, T -0.054, V 0.062, W -0.391, Y -0.242
R50: A -0.494, C -0.363, E -0.526, F -1, G -0.677, H -0.527, I -0.292, K -0.582, L -0.623, M -0.722, N -0.653, P -0.649, Q -0.621, S -0.524, T -0.71, V -0.492, W -0.706, Y -0.834
Q51: A -0.084, C -0.379, D -0.076, E -0.128, G -0.216, L -0.252, M -0.215, N -0.044, P -0.54, R -0.092, S -0.082, T -0.163, V -0.233, W -0.724, Y -0.483
Q52: A -0.04, C -0.12, D 0.112, E 0.079, F -0.667, G -0.279, H -0.155, I -0.211, K -0.095, L -0.132, M -0.302, N -0.193, P -0.715, S -0.105, T -0.2, W -0.805, Y -0.574
I53: A -0.331, C -0.404
